According to the supplement of paper PMC10567573:

B1: RHOBTB3 (parent)
chain: STTEGIQLAKELGATYLELHSLDD

Variants of: B1
Test: protein stability index of a GFP-peptide fusion (GPS, HEK-293T) (PSI 1-6); higher = more stable
Conditions: c terminus: a fixed tail appended
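Also: lentivirally expressed fusions sorted by FACS into six bins by GFP to DsRed ratio, PSI derived from sequencing read proportions per bin multiplied by bin number.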

Protein stability index: each site, then its substitutions
A9: I 2.63, K 3.6, T 4.21, M 1.74, G 4.34, W 2.64
E11: N 3.84, H 4.34, Y 2.88, F 2.56
L22: H 4.62, Q 4.91, E 5.93, A 4.99, R 5.07, G 3.38, F 3.47, K 4.68, Y 4.41
T15: W 2.02, V 2.17, Q 4.33
D24: W 2.09, N 2.16, P 3.16, T 2.05, S 2.02, M 1.38
A14: Q 3.28, V 3.85, D 2.87, M 3.58, H 4.1, P 4.28, E 4.25, K 3.01
T3: S 4.02, P 3.56, I 2.73, Y 2.83, R 3.03, H 2.49, W 1.84, L 2.37, V 3.19
Q7: L 2.95, S 4.24, V 3.54, C 3.49, E 3.71, R 2.19, D 4.68, K 3.96
S21: V 2.93, Q 3.39, T 3.79, E 3.93, A 2.93, W 1.03
D23: L 2.21, H 3.71, K 3.14, V 2.29, T 3.75, Q 3.55, S 3, W 2.92, A 2.43
S1: P 3.63, W 2.74, Q 4.18, C 2.86, H 2.81, D 4.37, F 2.39, I 2.44, M 3.49, A 3.21, K 4.39, G 3.69
L8: E 4.97, C 3.94, S 4.58, G 5.04, D 5.04
L19: R 4.43, G 5.31, Q 5.55, E 4.76, M 4.38, Y 4.82, W 4.68, D 5.77
H20: S 3.44, I 1.76, K 2.42, N 4.46
I6: S 4.39, T 1.68, M 3.01, P 4.31, N 4.39, W 2.7, L 2.87, E 4.71
E4: H 3.37, R 3.42, I 2.35, S 3.79, K 4.24, Q 2.71, G 3.98
T2: G 2.54, R 3.5, S 3.71, K 3.5, P 4.02, C 3.31, D 4.43, E 4.33, H 3.68
Y16: W 2.49, Q 4.33, K 4.81, I 3.47, D 3.29, L 2.91, H 4.25, T 4.28, E 4.35
L17: P 4.88, C 4.14, T 4.82, Q 4.74, H 4.8, E 4.73, V 4.15
K10: A 2.73, R 2.99, F 1.38
G13: F 2.36, E 2.73, D 4.31, Y 1.42, R 1.66, V 2.52, K 3.16, M 1.66
E18: S 3.86, M 2.66, D 4.36, Q 3.39, C 2.62, T 3.71
L12: V 4.43, I 3.92, A 5, H 4.78, S 4.92, T 4.88, D 5.62, E 4.99, Y 4.81
G5: C 3.02, Y 2.91, T 4.16, W 1.56
